Usually Kd stands for the constant that tells how readily two partners part at equilibrium. Read a high Kd as lower affinity.

In assay [1] the target is T1-S18.45 Q31A scTv, yeast-displayed (human). Put plainly: flow cytometry on cells. For orientation: In flow cytometry, cells or beads pass a laser one at a time.
For assay [2], the target named is T1 scTCR with wild-type CDR loops (stabilized version), Y51A, soluble (human). Kind of assay: SPR.

“MART-1/HLA-A2-biotin monomer (UV peptide exchange) (from UniProt P61769 21-119) (peptide-MHC)” had an other in assay [1] greater than 15 fold. As to “MART-1/HLA-A2 of the steady-state SPR (peptide variant not stated) (from UniProt P61769 21-119) (peptide-MHC)”, in assay [2], the Kd was greater than 1000 µM.

The values above are taken from PMC3844621.
